Measured values reported in paper PMC3787745, “Yeast Mnn9 is both a priming glycosyltransferase and an allosteric activator of mannan biosynthesis” (Open Biology, 2013).

Target: T1, ScVan1 (Saccharomyces cerevisiae Van1p glycosyltransferase domain, residues 87-535) (S. cerevisiae, UniProt P23642 87-535)
T1 construct: Van1p, S. cerevisiae S288c, lacking the first 86 amino acid residues (cytoplasmic domain, transmembrane domain and predicted disordered region); glycosyltransferase domain 87-535; Cloned into pNIFTY/MBP (MBP, hexahistidine, TEV site at the N-terminus); the tag was cleaved off with TEV protease; also called ScVan1p; V1; source: E. coli BL21(DE3) pLysS, purified (Ni-IMAC, TEV cleavage, anion …)
T1 sequence (looked up): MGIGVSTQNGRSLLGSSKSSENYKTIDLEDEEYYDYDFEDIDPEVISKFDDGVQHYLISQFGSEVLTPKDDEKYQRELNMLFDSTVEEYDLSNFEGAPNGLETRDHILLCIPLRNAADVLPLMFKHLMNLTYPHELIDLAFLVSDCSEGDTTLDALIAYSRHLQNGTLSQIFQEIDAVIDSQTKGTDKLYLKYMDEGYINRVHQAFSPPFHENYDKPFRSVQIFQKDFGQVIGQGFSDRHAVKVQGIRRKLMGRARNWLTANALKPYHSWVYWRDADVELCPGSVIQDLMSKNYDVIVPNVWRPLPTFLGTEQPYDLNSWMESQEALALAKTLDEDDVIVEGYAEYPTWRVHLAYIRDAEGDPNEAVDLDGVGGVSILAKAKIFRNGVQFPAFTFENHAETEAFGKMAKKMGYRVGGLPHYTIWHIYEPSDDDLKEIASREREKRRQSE
Test: BLI; Octet RED384; biotinylated ScMnn9 bound at 25 µg/ml to streptavidin sensors; ScVan1 at 0 to 15 µM in buffer C (100 mM HEPES pH 7.5, 5 mM MnCl2, 1 mg/ml BSA, 0.015% BRIJ 35); association 10 min, dissociation 20 min; triplicate, full kinetic fit
Conditions: both partners purified

B1: ScMnn9 (Saccharomyces cerevisiae Mnn9p glycosyltransferase core, residues 93-395) (domain or fragment, S. cerevisiae, UniProt P39107 93-395, looked up)
chain: EGHIAHYDLNKLHSTSEAAVNKEHILILTPMQTFHQQYWDNLLQLNYPRELIELGFITPRTATGDLALKKLENAIKKVQTDKKTQRFSKITILRQNSQSFDKLMEKERHALDVQKERRAAMALARNELLFSTIGPHTSWVLWLDADIIETPPSLIQDMTKHNKAILAANIYQRFYDEEKKQPSIRPYDFNNWQESDTGLEIASQMGDDEIIVEGYAEIATYRPLMAHFYDANGVPGEEMALDGVGGGCTLVKAEVHRDGAMFPNFPFYHLIETEGFAKMAKRLNYDVFGLPNYLVYHIEEENH
modifications: biotinylated with EZ-link NHS-PEG4-Biotin
notes: Mnn9p, S. cerevisiae S288c, lacking the first 92 amino acid residues (cytoplasmic domain, transmembrane domain and predicted disordered region); glycosyltransferase core 93-395; Cloned into pNIFTY/MBP (MBP, hexahistidine, TEV site at the N-terminus); PDB 3ZF8 holds the D236N mutant of the same limits; also called ScMnn9p; M9; source: E. coli BL21(DE3) pLysS, purified (Ni-IMAC, TEV cleavage, anion …)
Kd: 480 nM
koff: 0.00032 s⁻¹
kon: 620 M⁻¹ s⁻¹
